Experimental data from article PMC2744565, “Human Telomerase Reverse Transcriptase (hTERT) Q169 Is Essential for Telomerase Function In Vitro and In Vivo”.

Assays:
Settings in all cases: protein: ivt; tags: N-terminal FLAG; label: 5'-biotin
[1] = molecular target: T1, hTERT Q169D (Homo sapiens, UniProt O14746 1-1132, Q169D); test: pull-down; stronger than WT; 5'-biotin primers with RRL-made 35S-hTERT (no hTR), neutravidin bead pull-down; primer mix pre-incubated on ice 45-60 min; buffer, salt and pH not given (ref 28)
T1 sequence (O14746 whole entry Q169D): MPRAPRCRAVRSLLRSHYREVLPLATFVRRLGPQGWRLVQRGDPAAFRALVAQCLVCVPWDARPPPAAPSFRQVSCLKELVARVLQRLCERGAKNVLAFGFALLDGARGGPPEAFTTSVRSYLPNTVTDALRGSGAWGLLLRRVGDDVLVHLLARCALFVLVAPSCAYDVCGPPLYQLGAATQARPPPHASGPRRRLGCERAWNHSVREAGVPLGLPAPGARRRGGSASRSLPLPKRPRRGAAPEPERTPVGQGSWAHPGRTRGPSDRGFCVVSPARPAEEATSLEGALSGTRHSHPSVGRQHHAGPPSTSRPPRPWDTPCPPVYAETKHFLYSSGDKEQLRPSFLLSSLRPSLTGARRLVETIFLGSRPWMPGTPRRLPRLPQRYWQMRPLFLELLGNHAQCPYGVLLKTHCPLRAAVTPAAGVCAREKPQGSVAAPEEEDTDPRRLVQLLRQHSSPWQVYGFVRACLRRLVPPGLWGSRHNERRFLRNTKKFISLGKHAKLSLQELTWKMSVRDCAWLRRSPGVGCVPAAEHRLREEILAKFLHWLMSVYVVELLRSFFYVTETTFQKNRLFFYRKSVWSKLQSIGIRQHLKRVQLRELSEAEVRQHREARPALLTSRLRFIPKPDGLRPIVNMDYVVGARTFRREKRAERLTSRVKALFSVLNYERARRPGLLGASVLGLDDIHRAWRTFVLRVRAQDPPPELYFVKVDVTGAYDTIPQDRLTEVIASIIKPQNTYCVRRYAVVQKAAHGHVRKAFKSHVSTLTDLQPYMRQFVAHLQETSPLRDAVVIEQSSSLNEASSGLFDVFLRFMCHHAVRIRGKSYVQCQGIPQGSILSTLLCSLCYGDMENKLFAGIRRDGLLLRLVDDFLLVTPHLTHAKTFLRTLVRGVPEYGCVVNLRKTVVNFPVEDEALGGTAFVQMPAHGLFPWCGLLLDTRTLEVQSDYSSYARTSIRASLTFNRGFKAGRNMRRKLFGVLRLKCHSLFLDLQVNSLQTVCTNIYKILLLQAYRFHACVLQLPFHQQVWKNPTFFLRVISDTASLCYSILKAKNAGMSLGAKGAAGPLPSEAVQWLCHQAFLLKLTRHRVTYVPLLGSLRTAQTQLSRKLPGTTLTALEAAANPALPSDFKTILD

[2] = molecular target: T2, hTERT Q169N (Homo sapiens, UniProt O14746 1-1132, Q169N); test: as above
T2 sequence (O14746 whole entry Q169N): as the sequence (O14746 whole entry Q169D) above, with D169N counted along it

[3] = molecular target: T3, hTERT Q169A (Homo sapiens, UniProt O14746 1-1132, Q169A); test: as above
T3 sequence (O14746 whole entry Q169A): as the sequence (O14746 whole entry Q169D) above, with D169A counted along it

[4] = molecular target: T1, hTERT Q169D; test: pull-down; 5'-biotin primers with RRL-made 35S-hTERT (no hTR), neutravidin bead pull-down; primer mix pre-incubated on ice 45-60 min; buffer, salt and pH not given (ref 28)
[5] = molecular target: hTERT WT (Homo sapiens, UniProt O14746 1-1132); test: as above
Sequence of hTERT WT (O14746 whole entry): as the sequence (O14746 whole entry Q169D) above, with D169Q counted along it

[6] = molecular target: T2, hTERT Q169N; test: as above
[7] = molecular target: T3, hTERT Q169A; test: as above

## TTAGGG (ssDNA) [bio-TELO6]
[1]
  binding result: binds
[2]
  binding result: binds
[3]
  binding result: binds

## TTGGGGTTGGGGTTGGGG (ssDNA) [bio-Tetrahymena]
[4]
  binding result: binds
[5]
  binding result: binds
[6]
  binding result: binds
[7]
  binding result: binds

## TTAGGGTTAGGGTTAGGGTTAGGG (ssDNA) [bio-TELO24]
[3]
  binding result: binds

## TTAGGGTTAGGG (ssDNA) [bio-TELO12]
[1]
  binding result: binds
[2]
  binding result: binds
[3]
  binding result: binds
